According to patent US20250243279A1 (published 2025):

Assays:
Test in all cases: Carterra LSA SPR
1A2 = biological target: 1A2
1B6 = biological target: 1B6
1C8 = biological target: 1C8
1B11-2 = biological target: 1B11-2
1D7 = biological target: 1D7
1E1 = biological target: 1E1
1D8 = biological target: 1D8
1H7 = biological target: 1H7
1D9 = biological target: 1D9

B1: huMICA (ligand)
chain: EPHSLRYNLTVLSWDGSVQSGFLTEVHLDGQPFLRCDRQKCRAKPQGQWAEDVLGNKTWDRETRDLTGNGKDLRMTLAHIKDQKEGLHSLQEIRVCEIHEDNSTRSSQHFYYDGELFLSQNLETKEWTMPQSSRAQTLAMNVRNFLKEDAMKTKTHYHAMHADCLQELRRYLKSGVVLRRTVPPMVNVTRSEASEGNITVTCRASGFYPWNITLSWRQDGVSLSHDTQQWGDVLPDGNGTYQTWVATRICQGEEQRFTCYMEHSGNHSTHPVPSGKVLVLQSHWQTFHVSAVAAAAIFVIIIFYVRCCKKKTSAAEGPELVSLQVLDQHPVGTSDHRDATQLGFQPLMSDLGSTGSTEGA
- Kd (1A2): 2.13 nM
- Kd (1B6): 5.85 nM
- Kd (1C8): 20.6 nM
- Kd (1B11-2): 2.83 nM
- Kd (1D7): 0.344 nM
- Kd (1E1): 12.2 nM
- Kd (1D8): 46.7 nM
- Kd (1H7): 75 nM
- Kd (1D9): 12.8 nM
